The text below walks through data of patent US7001748.

Data set [1] addresses T1, acyl-ACP4(4) adduct 4d ((2R,3R)-diketide on ACP4(4)), Q03132.
T1 chain: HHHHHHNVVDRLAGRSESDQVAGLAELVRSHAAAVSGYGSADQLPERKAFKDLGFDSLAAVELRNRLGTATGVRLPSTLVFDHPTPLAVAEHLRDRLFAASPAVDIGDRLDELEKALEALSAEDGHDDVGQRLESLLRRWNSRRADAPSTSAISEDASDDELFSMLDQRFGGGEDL

Data set [2] concerns the target T2, acyl-ACP4(4) adduct 4b ((2R,3S)-diketide on ACP4(4)), Q03132.
T2 chain: T1 chain

Data set [3] deals with T3, acyl-ACP4(4) adduct 4c ((2S,3S)-diketide on ACP4(4)), Q03132.
T3 chain: T1 chain

In data set [4] the target is T4, acyl-ACP4(4) adduct 4a ((2S,3R)-diketide on ACP4(4)), Q03132.
T4 chain: T1 chain

B1: (5)M2+TE (N-ERL-M2+TE; plasmid pRSG64) (protein)
chain: MSGDNGMTEEKLRRYLKRTVTELDSVTARLREVEHRAGEIAIVGMACRLPGEVDSPERLWELITSGRDSAAEVPDDRGWVPDELMASDAAGTRAHGNFMAGAGDFDAAFFGISPREALAMDPQQRQALETTWEALESAGIPPETLRGSDTGVFVGMSHQGYATGRPRPEDGVDGYLLTGNTASVASGRIAYVLGLEGPALTVDTACSSSLVALHTACGSLRDGDCGLAVAGGVSVMAGPEVFTEFSRQGALSPDGRCKPFSDEADGFGLGEGSAFVVLQRLSDARREGRRVLGVVAGSAVNQDGASNGLSAPSGVAQQRVIRRAWARAGITGADVAVVEAHGTGTRLGDPVEASALLATYGKSRGSSGPVLLGSVKSNIGHAQAAAGVAGVIKVLLGLERGVVPPMLCRGERSGLIDWSSGEIELADGVREWSPAADGVRRAGVSAFGVSGTNAHVIIAEPPEPEPVPQPRRMLPATGVVPVVLSARTGAALRAQAGRLADHLAAHPGIAPADVSWTMARARQHFEERAAVLAADTAEAVHRLRAVADGAVVPGVVTGSASDGGSVFVFPGQGAQWEGMARELLPVPVFAESIAECDAVLSEVAGFSVSEVLEPRPDAPSLERVDVVQPVLFAVMVSLARLWRACGAVPSAVIGHSQGEIAAAVVAGALSLEDGMRVVARRSRAVRAVAGRGSMLSVRGGRSDVEKLLADDSWTGRLEVAAVNGPDAVVVAGDAQAAREFLEYCEGVGIRARAIPVDYASHTAHVEPVRDELVQALAGITPRRAEVPFFSTLTGDFLDGTELDAGYWYRNLRHPVEFHSAVQALTDQGYATFIEVSPHPVLASSVQETLDDAESDAAVLGTLERDAGDADRFLTALADAHTRGVAVDWEAVLGRAGLVDLPGYPFQGKRFWLLPDRTTPRDELDGWFYRVDWTEVPRSEPAALRGRWLVVVPEGHEEDGWTVEVRSALAEAGAEPEVTRGVGGLVGDCAGVVSLLALEGDGAVQTLVLVRELDAEGIDAPLWTVTFGAVDAGSPVARPDQAKLWGLGQVASLERGPRWTGLVDLPHMPDPELRGRLTAVLAGSEDQVAVRADAVRARRLSPAHVTATSEYAVPGGTILVTGGTAGLGAEVARWLAGRGAEHLALVSRRGPDTEGVGDLTAELTRLGARVSVHACDVSSREPVRELVHGLIEQGDVVRGVVHAAGLPQQVAINDMDEAAFDEVVAAKAGGAVHLDELCSDAELFLLFSSGAGVWGSARQGAYAAGNAFLDAFARHRRGRGLPATSVAWGLWAAGGMTGDEEAVSFLRERGVRAMPVPRALAALDRVLASGETAVVVTDVDWPAFAESYTAARPRPLLDRIVTTAPSERAGEPETESLRDRLAGLPRAERTAELVRLVRTSTATVLGHDDPKAVRATTPFKELGFDSLAAVRLRNLLNAATGLRLPSTLVFDHPNASAVAGFLDICCAGTAAISGPHEFTRLAGALRGIAPVRAVPQPGYEEGEPLPSSMAAVAAVQADAVIRTQGDKPFVVAGHSAGALMAYALATELLDRGHPPRGVVLIDVYPPGHQDAMNAWLEELTATLFDRETVRMDDTRLTALGAYDRLTGQWRPRETGLPTLLVSAGEPMGPWPDDSWKPTWPFEHDTVAVPGDHFTMVQEHADAIARHIDAWHHHHHH
For B1, the “diketide incorporation from acyl-ACP (triketide lactone formation)” value in data set [1] is 4c and 4d were also substrates for the three modules; in data set [2] it was “Both 4a and 4b were accepted and extended by all three modules”; in data set [3], 4c and 4d were also substrates for the three modules; in data set [4], “Both 4a and 4b were accepted and extended by all three modules”.

B2: M3+TE (module 3 of DEBS with its own N-terminal linker and with the thioesterase fused to the C-terminus; plasmid pRSG34) (protein)
chain: MTDSEKVAEYLRRATLDLRAARQRIRELESDIAIVSMACRLPGGVNTPQRLWELLREGGETLSGFPTDRGWDLARLHHPDPDNPGTSYVDKGGFLDDAAGFDAEFFGVSPREAAAMDPQQRLLLETSWELVENAGIDPHSLRGTATGVFLGVAKFGYGEDTAAAEDVEGYSVTGVAPAVASGRISYTMGLEGPSISVDTACSSSLVALHLAVESLRKGESSMAVVGGAAVMATPGVFVDFSRQRALAADGRSKAFGAGADGFGFSEGVTLVLLERLSEARRNGHEVLAVVRGSALNQDGASNGLSAPSGPAQRRVIRQALESCGLEPGDVDAVEAHGTGTALGDPIEANALLDTYGRDRDADRPLWLGSVKSNIGHTQAAAGVTGLLKVVLALRNGELPATLHVEEPTPHVDWSSGGVALLAGNQPWRRGERTRRARVSAFGISGTNAHVIVEEAPEREHRETTAHDGRPVPLVVSARTTAALRAQAAQIAELLERPDADLAGVGLGLATTRARHEHRAAVVASTREEAVRGLREIAAGAATADAVVEGVTEVDGRNVVFLFPGQGSQWAGMGAELLSSSPVFAGKIRACDESMAPMQDWKVSDVLRQAPGAPGLDRVDVVQPVLFAVMVSLAELWRSYGVEPAAVVGHSQGEIAAAHVAGALTLEDAAKLVVGRSRLMRSLSGEGGMAAVALGEAAVRERLRPWQDRLSVAAVNGPRSVVVSGEPGALRAFSEDCAAEGIRVRDIDVDYASHSPQIERVREELLETTGDIAPRPARVTFHSTVESRSMDGTELDARYWYRNLRETVRFADAVTRLAESGYDAFIEVSPHPVVVQAVEEAVEEADGAEDAVVVGSLHRDGGDLSAFLRSMATAHVSGVDIRWDVALPGAAPFALPTYPFQRKRYWLQPAAPAAASDELAYRVSWTPIEKPESGNLDGDWLVVTPLISPEWTEMLCEAINANGGRALRCEVDTSASRTEMAQAVAQAGTGFRGVLSLLSSDESACRPGVPAGAVGLLTLVQALGDAGVDAPVWCLTQGAVRTPADDDLARPAQTTAHGFAQVAGLELPGRWGGVVDLPESVDDAALRLLVAVLRGGGRAEDHLAVRDGRLHGRRVVRASLPQSGSRSWTPHGTVLVTGAASPVGDQLVRWLADRGAERLVLAGACPGDDLLAAVEEAGASAVVCAQDAAALREALGDEPVTALVHAGTLTNFGSISEVAPEEFAETIAAKTALLAVLDEVLGDRAVEREVYCSSVAGIWGGAGMAAYAAGSAYLDALAEHHRARGRSCTSVAWTPWALPGGAVDDGYLRERGLRSLSADRAMRTWERVLAAGPVSVAVADVDWPVLSEGFAATRPTALFAELAGRGGQAEAEPDSGPTGEPAQRLAGLSPDEQQENLLELVANAVAEVLGHESAAEINVRRAFSELGLDSLNAMALRKRLSASTGLRLPASLVFDHPTVTALAQHLRICCAGTAAISGPHEFTRLAGALRGIAPVRAVPQPGYEEGEPLPSSMAAVAAVQADAVIRTQGDKPFVVAGHSAGALMAYALATELLDRGHPPRGVVLIDVYPPGHQDAMNAWLEELTATLFDRETVRMDDTRLTALGAYDRLTGQWRPRETGLPTLLVSAGEPMGPWPDDSWKPTWPFEHDTVAVPGDHFTMVQEHADAIARHIDAWHHHHHH
Take B2: the “diketide incorporation from acyl-ACP (product formation)” value in data set [1], in data set [2], in data set [3] and in data set [4] was “no product formation was observed from the incubation of any of the acyl-ACP adducts with (3)M3+TE” throughout.

B3: (5)M3+TE (derivative of M3+TE where the natural N-terminal linker has been replaced with the N-terminal linker of module 5 of DEBS; plasmid pST132) (protein)
chain: MSGDNGMTEEKLRRYLKRTVTELDSVTARLREVEHRAGEPIAIVSMACRLPGGVNTPQRLWELLREGGETLSGFPTDRGWDLARLHHPDPDNPGTSYVDKGGFLDDAAGFDAEFFGVSPREAAAMDPQQRLLLETSWELVENAGIDPHSLRGTATGVFLGVAKFGYGEDTAAAEDVEGYSVTGVAPAVASGRISYTMGLEGPSISVDTACSSSLVALHLAVESLRKGESSMAVVGGAAVMATPGVFVDFSRQRALAADGRSKAFGAGADGFGFSEGVTLVLLERLSEARRNGHEVLAVVRGSALNQDGASNGLSAPSGPAQRRVIRQALESCGLEPGDVDAVEAHGTGTALGDPIEANALLDTYGRDRDADRPLWLGSVKSNIGHTQAAAGVTGLLKVVLALRNGELPATLHVEEPTPHVDWSSGGVALLAGNQPWRRGERTRRARVSAFGISGTNAHVIVEEAPEREHRETTAHDGRPVPLVVSARTTAALRAQAAQIAELLERPDADLAGVGLGLATTRARHEHRAAVVASTREEAVRGLREIAAGAATADAVVEGVTEVDGRNVVFLFPGQGSQWAGMGAELLSSSPVFAGKIRACDESMAPMQDWKVSDVLRQAPGAPGLDRVDVVQPVLFAVMVSLAELWRSYGVEPAAVVGHSQGEIAAAHVAGALTLEDAAKLVVGRSRLMRSLSGEGGMAAVALGEAAVRERLRPWQDRLSVAAVNGPRSVVVSGEPGALRAFSEDCAAEGIRVRDIDVDYASHSPQIERVREELLETTGDIAPRPARVTFHSTVESRSMDGTELDARYWYRNLRETVRFADAVTRLAESGYDAFIEVSPHPVVVQAVEEAVEEADGAEDAVVVGSLHRDGGDLSAFLRSMATAHVSGVDIRWDVALPGAAPFALPTYPFQRKRYWLQPAAPAAASDELAYRVSWTPIEKPESGNLDGDWLVVTPLISPEWTEMLCEAINANGGRALRCEVDTSASRTEMAQAVAQAGTGFRGVLSLLSSDESACRPGVPAGAVGLLTLVQALGDAGVDAPVWCLTQGAVRTPADDDLARPAQTTAHGFAQVAGLELPGRWGGVVDLPESVDDAALRLLVAVLRGGGRAEDHLAVRDGRLHGRRVVRASLPQSGSRSWTPHGTVLVTGAASPVGDQLVRWLADRGAERLVLAGACPGDDLLAAVEEAGASAVVCAQDAAALREALGDEPVTALVHAGTLTNFGSISEVAPEEFAETIAAKTALLAVLDEVLGDRAVEREVYCSSVAGIWGGAGMAAYAAGSAYLDALAEHHRARGRSCTSVAWTPWALPGGAVDDGYLRERGLRSLSADRAMRTWERVLAAGPVSVAVADVDWPVLSEGFAATRPTALFAELAGRGGQAEAEPDSGPTGEPAQRLAGLSPDEQQENLLELVANAVAEVLGHESAAEINVRRAFSELGLDSLNAMALRKRLSASTGLRLPASLVFDHPTVTALAQHLRARLDSGTPAREASSALRDGYRQAGVSGRVRSYLDLLAGLSDFREHFDGSDGFSLDLVDMADGPGEVTVICCAGTAAISGPHEFTRLAGALRGIAPVRAVPQPGYEEGEPLPSSMAAVAAVQADAVIRTQGDKPFVVAGHSAGALMAYALATELLDRGHPPRGVVLIDVYPPGHQDAMNAWLEELTATLFDRETVRMDDTRLTALGAYDRLTGQWRPRETGLPTLLVSAGEPMGPWPDDSWKPTWPFEHDTVAVPGDHFTMVQEHADAIARHIDAWLGGGNSHHHHHH
Take B3: the “diketide incorporation from acyl-ACP (product formation)” value in data set [1], in data set [2], in data set [3] and in data set [4] was “all four acyl-ACP adducts were observed to be substrates for (5)M3+TE” in each case.
